Experimental data published in US8114974B2, “Engineered microorganisms with enhanced fermentation activity” (Verdezyne, Inc., priority 2009, dated 2012).

Experiments:
[1] = system: xylose isomerase; assay: Heterologous xylose isomerase expression in yeast (active yes/no); assay type: cell-based, Saccharomyces cerevisiae; details: xylose isomerase of the donor organism expressed in engineered yeast (S. cerevisiae)
[2] = system: xylose isomerase; assay: In vitro xylose isomerase activity assay (sorbitol dehydrogenase/NADH coupled, A340; Km, specific activity, Ki for xylitol); assay type: biochemical, Saccharomyces cerevisiae
Protocol: About 20 μg of soluble whole cell extract was incubated in the presence of 100 mM Tris, pH 7.5, 10 mM MgCl2, 0.15 mM NADH (Sigma, St. Louis, Mo.), and about 2 U sorbitol dehydrogenase (Roche) at about 30° C. […] A Beckman DU-800 was utilized with an Enzyme Mechanism software package (Beckman Coulter, Inc.), and the change in the A340 was monitored for 2-3 minutes.
Approximately 20 μg of soluble whole cell extract from each transformed cell line, prepared using Y-PER plus reagent as described above, was incubated in a solution containing about 100 mM Tris, pH 7.5, 10 mM MgCl ? 2, 0.15 mM NADH (Sigma, St. Louis, Mo.), and 2 U Sorbitol Dehydrogenase (SDH) (Roche, Indianapolis, Ind.) at about 30° C. […] A Beckman DU-800 spectrophotometer was utilized with an Enzyme Mechanism software package (Beckman Coulter, Inc, Brea, Calif.), and the change in the A340 was monitored for 2-3 minutes.
Approximately 20 μg of soluble whole cell extract from each transformed cell line was prepared using Y-PER plus reagent as described above was incubated in a solution containing about 100 mM Tris, pH 7.5, 10 mM MgCl2, 0.15 mM NADH (Sigma, St. Louis, Mo.), and 2 U sorbitol dehydrogenase (SDH) (Roche, Indianapolis, Ind.) at about 30° C. […] A Beckman DU-800 spectrophotometer was utilized with an Enzyme Mechanism software package (Beckman Coulter, Inc, Brea, Calif.), and the change in the A340 was monitored for 2-3 minutes.
Approximately 20 μg of soluble whole cell extract from each transformed cell line was prepared using Y-PER plus reagent as described above was incubated in a solution containing about 100 mM Tris, pH 7.5, 10 mM MgCl ? .2, 0.15 mM NADH (Sigma, St. Louis, Mo.), and 2 U Sorbitol Dehydrogenase (SDH) (Roche, Indianapolis, Ind.) at about 30° C. […] A Beckman DU-800 spectrophotometer was utilized with an Enzyme Mechanism software package (Beckman Coulter, Inc, Brea, Calif.), and the change in the A340 was monitored for 2-3 minutes.
The Clostridiales enzyme was further characterized at 1974 μg to confirm the presence of activity.

[3] = system: 2-keto-3-deoxygluconate-6-phosphate aldolase (EDA); assay: EDA activity assay with saturating amounts of E. coli EDD extract (LDH/NADH coupled); assay type: biochemical, Saccharomyces cerevisiae; details: for EDA activity (comparison in words): saturating E. coli EDD extract
Protocol: EDA genes isolated from a variety of sources were expressed in yeast and evaluated independently of EDA activity, to identify EDA activities suitable of inclusion in an engineered yeast strain. […] The activity of integrated EDAs in Thermosacc-Gold haploids, were also evaluated in this manner. The table below describes oligonucleotide primers used to isolate the various EDA genes.
EDA extracts were prepared using the following protocol. Day 1
Grow 5 ml LB-Kan preps of BF1055 (BL21/DE3 with pET26b empty vector) and BF1706 (BL21DE3 with pET26b+E. coli EDD).
Grow 50 ml LB-Kan prep of BF1055, 2% (v/v) inoculate.
Grow 50 ml prep of BF1706 using Novagen's Overnight Express (46.45 ml LB-Kan, 1 ml solution 1, 2.5 ml solution 2, 50 μl solution 3, 5 μl of 1M MnCl2, 50 μl of 0.5 M FeCl2), 2% (v/v) inoculate.
Inoculate to OD600 of 0.2.
EDD extractions (adapted from Chemyan et al, Protein Science 16:2368-2377, 2007): • 1) Pellet cells in 50 ml conical tubes, 4° C., 3,000 rpm, 10 mins, discard supernatant. • 2) Resuspend in 2 ml degassed PDGH buffer (20 mM MES pH 6.5, 30 mM NaCl, 5 mM • MnCl2, 0.5 mM FeCl2, 10 mM 2-mercaptoethanol, 10 mM cysteine, sparged with nitrogen gas). Move to hungate tube. • 3) Add 0.1% Triton X-100, 10 ng/ml DNase, 10 μg/ml PMSF, 10 μg/ml TAME (Nα-(p-toluene sulfonyl)-L-arginine methyl ester), 100 μg/ml lysozyme. • 4) Sparge hungate tube with nitrogen gas, cap and seal. Incubate 2 hours at 37° C., swirl occasionally. • 5) Clarify by centrifugation in 2-ml tube, 4° C., 10 mins, 14,000 rpm. Keep supernatant. • 6) Treat with 150 mM pyruvate and 10 mM sodium cyanoborohydride (work in hood) to inactivate aldolase activity. Incubate 30 mins at room temperature. • 7) During incubation, pre-equilibrate PD-10 column from GE • a. Remove top cap, pour off storage buffer. • b. Cut off bottom tip, fit in 50 ml conical with adapter. • c. Pour 5 ml of 20 mM MES buffer, pH 6.5 (total of 5 times). Discard flow-through. • 8) Run sample through column, then add MES buffer to a total of 2.5 ml volume added. Discard flow-through. • 9) Run 3.5 ml 20 mM MES pH 6.5 buffer to elute protein. Discard column in appropriate waste receptacle. • 10) Perform Bradford assay (1:10 or 1:20 dilution). EDA extractions: • 1) Spin down in 50 ml conicals, 4° C., 3,400 rpm, 5 mins. Wash 2× with 25 ml water. • 2) Resuspend in 1 ml lysis buffer (50 mM Tris-HCl, pH 7, 10 mM MgCl2, 1× protease inhibitor. […]
Each reaction contains 50 mM Tris-HCl, pH 7, 10 mM MgCl2, 0.15 mM NADH, 15 μg LDH, saturating amounts of EDD determined empirically (usually ˜100 μg), 1-50 μg EDA (depending on level of activity), and 1 mM 6-phosphogluconate. Reactions are started by the addition of 6-phosphogluconate and monitored for 5 mins at 30° C.

[4] = chimeric variants, soluble whole cell extract, xylose 40-500 mM

## Actinoplanes missouriensis: xylose isomerase of this donor organism
[1]
  Active? (yes/no): No

## Bacteroides thetaiotaomicron: xylose isomerase of this donor organism
[1]
  Active? (yes/no): Yes

## Piromyces: xylose isomerase from Piromyces strain E2 (SEQ ID NO: 35)
[1]
  Active? (yes/no): Yes
[2]; G179A mutant kinetic assays, xylose 40-500 mM
  Specific Activity: 2.02 µmol/min/mg
[2]; [4]
  Specific Activity: 2.02 µmol/min/mg
[2]; soluble whole cell extract, xylose 40-500 mM, 30° C., pH 7.5
  Specific Activity: 2.02 µmol/min/mg

## Streptomyces rubiginosus: xylose isomerase of this donor organism
[1]
  Active? (yes/no): No

## Thermus thermophilus: xylose isomerase of this donor organism
[1]
  Active? (yes/no): Yes

B1: E. coli EDA: 2-keto-3-deoxygluconate-6-phosphate aldolase of Escherichia coli expressed in yeast (protein, UniProt P0A955 1-213, looked up)
KHG/KDPG aldolase: MKNWKTSAESILTTGPVVPVIVVKKLEHAVPMAKALVAGGVRVLEVTLRTECAVDAIRAIAKEVPEAIVGAGTVLNPQQLAEVTEAGAQFAISPGLTEPLLKAATEGTIPLIPGISTVSELMLGMDYGLKEFKFFPAEANGGVKALQAIAGPFSQVRFCPTGGISPANYRDYLALKSVLCIGGSWLVPADALEAGDYDRITKLAREAVEGAKL
[3]; 100 μg of EDD and 25 μg of EDA cell lysates (5 μg of E. coli EDA), linear range
  EDA activity, repeated experiment (FIG. 24): most active of those EDA's tested
[3]; first experiment
  EDA activity (comparison in words): higher activity as compared to the other EDA activities evaluated herein
[3]; first experiment, E. coli EDA slope outside linear range, underestimated
  EDA activity relative to the EDA from P. aeruginosa: approximately 16 fold

B2: Codon-optimized EDA from P. aeruginosa: codon-optimized version of the P. aeruginosa EDA gene (protein, UniProt O68283 1-220, looked up)
2-dehydro-3-deoxy-phosphogluco …: MHNLEQKTARIDTLCREARILPVITIDREADILPMADALAAGGLTALEITLRTAHGLTAIRRLSEERPHLRIGAGTVLDPRTFAAAEKAGASFVVTPGCTDELLRFALDSEVPLLPGVASASEIMLAYRHGYRRFKLFPAEVSGGPAALKAFSGPFPDIRFCPTGGVSLNNLADYLAVPNVMCVGGTWMLPKAVVDRGDWAQVERLSREALERFAEHRRH
modifications: codon-optimized gene
[3]; first experiment
  EDA activity (comparison in words): slight improvement over the native sequence

B3: R. flavefaciens, FD-1 XI: xylose isomerase of Ruminococcus flavefaciens FD1 (ZP_06143883.1, SEQ ID NO: 110) (protein, listed as Ruminococcus flavefaciens)
chain: MEFFKNISKIPYEGKDSTNPLAFKYYNPDEVIDGKKMRDIMKFALSWWHTMGGDGTDMFGCGTADKTWGENDPAARAKAKVDAAFEIMQKLSIDYFCFHDRDLSPEYGSLKDTNAQLDIVTDYIKAKQAETGLKCLWGTAKCFDHPRFMHGAGTSPSADVFAFSAAQIKKALESTVKLGGTGYVFWGGREGYETLLNTNMGLELDNMARLMKMAVEYGRSIGFKGDFYIEPKPKEPTKHQYDFDTATVLGFLRKYGLDKDFKMNIEANHATLAQHTFQHELCVARTNGAFGSIDANQGDPLLGWDTDQFPTNIYDTTMCMYEVIKAGGFTNGGLNFDAKARRGSFTPEDIFYSYIAGMDAFALGYKAASKLIADGRIDSFISDRYASWSEGIGLDIISGKADMAALEKYALEKGEVTDSISSGRQELLESIVNNVIFNL
[2]; 100 μg total soluble crude extract, saturating xylose (500 mM)
  xylose isomerase activity (slope) of candidate enzymes (FIG. 25): highest activity of the candidates tested
[2]; Michaelis Mentin plots, xylose between 40 and 500 nM as printed
  specific activity relative to the native XI control activity: greater than 2 fold

B4: Escherichia coli: xylose isomerase of this donor organism (protein, UniProt P00944 1-440, looked up)
Xylose isomerase: MQAYFDQLDRVRYEGSKSSNPLAFRHYNPDELVLGKRMEEHLRFAACYWHTFCWNGADMFGVGAFNRPWQQPGEALALAKRKADVAFEFFHKLHVPFYCFHDVDVSPEGASLKEYINNFAQMVDVLAGKQEESGVKLLWGTANCFTNPRYGAGAATNPDPEVFSWAATQVVTAMEATHKLGGENYVLWGGREGYETLLNTDLRQEREQLGRFMQMVVEHKHKIGFQGTLLIEPKPQEPTKHQYDYDAATVYGFLKQFGLEKEIKLNIEANHATLAGHSFHHEIATAIALGLFGSVDANRGDAQLGWDTDQFPNSVEENALVMYEILKAGGFTTGGLNFDAKVRRQSTDKYDLFYGHIGAMDTMALALKIAARMIEDGELDKRIAQRYSGWNSELGQQILKGQMSLADLAKYAQEHHLSPVHQSGRQEQLENLVNHYLFDK
[1]
  Active? (yes/no): No

B5: Bacillus subtilis: xylose isomerase of this donor organism (protein, UniProt P0CI80 1-445, looked up)
Xylose isomerase: MAQSHSSSINYFGSANKVVYEGKDSTNPLAFKYYNPQEVIGGKTLKEHLRFSIAYWHTFTADGTDVFGAATMQRPWDHYKGMDLAKMRVEAAFEMFEKLDAPFFAFHDRDIAPEGSTLKETNQNLDMIMGMIKDYMRNSGVKLLWNTANMFTNPRFVHGAATSCNADVFAYAAAQVKKGLETAKELGAENYVFWGGREGYETLLNTDLKFELDNLARFMHMAVDYAKEIGYTGQFLIEPKPKEPTTHQYDTDAATTIAFLKQYGLDNHFKLNLEANHATLAGHTFEHELRMARVHGLLGSVDANQGHPLLGWDTDEFPTDLYSTTLAMYEILQNGGLGSGGLNFDAKVRRSSFEPDDLIYAHIAGMDAFARGLKVAHKLIEDRVFEDVIQHRYRSFTEGIGLEIIEGRANFHTLEQYALNHKSIKNESGRQEKLKAILNQYILEV
[1]
  Active? (yes/no): No

B6: Clostridium phytofermentans: xylose isomerase of this donor organism (protein)
chain: MKNYFPNVPEVKYEGPNSTNPFAFKYYDANKVVAGKTMKEHCRFALSWWHTLCAGGADPFGVTTMDRTYGNITDPMELAKAKVDAGFELMTKLGIEFFCFHDADIAPEGDTFEESKKNLFEIVDYIKEKMDQTGIKLLWGTANNFSHPRFMH
modifications: Clostridium phytofermentans
notes: xylose isomerase of this donor organism
[1]
  Active? (yes/no): Yes

B7: XI-Rp5: chimera: first 5 amino acids of Piromyces xylose isomerase fused to Ruminococcus xylose isomerase (SEQ ID NO. 56) (protein)
chain: MAKEYFSNIGKIQYQGPKSTDPLSFKYYNPEEVINGKTMREHLKFALSWWHTMGGDGTDMFGCGTTDKTWGQSDPAARAKAKVDAAFEIMDKLSIDYYCFHDRDLSPEYGSLKATNDQLDIVTDYIKEKQGDKFKCLWGTAKCFDHPRFMHGAGTSPSADVFAFSAAQIKKALESTVKLGGNGYVFWGGREGYETLLNTNMGLELDNMARLMKMAVEYGRSIGFKGDFYIEPKPKEPTKHQYDFDTATVLGFLRKYGLDKDFKMNIEANHATLAQHTFQHELRVARDNGVFGSIDANQGDVLLGWDTDQFPTNIYDTTMCMYEVIKAGGFTNGGLNFDAKARRGSFTPEDIFYSYIAGMDAFALGFRAALKLIEDGRIDKFVADRYASWNTGIGADIIAGKADFASLEKYALEKGEVTASLSSGRQEMLESIVNNVLFSL
[2]; [4]
  Km: 66.5 mM
  Specific Activity: 1.45 µmol/min/mg
